Assay results: the supplement of paper PMC9112550, “Optimization of the antimicrobial peptide Bac7 by deep mutational scanning” (BMC Biology, 2022)

System: Escherichia coli TOP10
Experiment: shrunken log2 fold change of peptide-encoding DNA abundance (4.5 h post-induction vs induction); higher = less antimicrobial activity (less host growth inhibition)
Details: time post-induction: 4.5 h; library: site-saturation at positions 5, 18, 19, 20
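Note: peptides expressed intracellularly from a pBAD plasmid library in pooled LB shake-flask culture, induced with 0.3% L-arabinose, DNA abundance read by NGS, three biological replicates, DESeq2 with apeglm shrinkage.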

Row | Sequence | shrunken log2 fold change
1 | RRIRCRPPRLPRPRPRPHKLPRP | -0.436
2 | RRIRCRPPRLPRPRPRPHKYPRP | -0.618
3 | RRIRCRPPRLPRPRPRPHLAPRP | -0.0147
4 | RRIRCRPPRLPRPRPRPHMNPRP | -0.843
5 | RRIRCRPPRLPRPRPRPHNCPRP | -0.491
6 | RRIRCRPPRLPRPRPRPHNNPRP | -0.991
7 | RRIRCRPPRLPRPRPRPHPPPRP | 0.809
8 | RRIRCRPPRLPRPRPRPHQKPRP | 0.00571
9 | RRIRCRPPRLPRPRPRPHRGPRP | 0.0133
10 | RRIRCRPPRLPRPRPRPHRQPRP | -0.19
11 | RRIRCRPPRLPRPRPRPHTLPRP | -0.731
12 | RRIRCRPPRLPRPRPRPHTSPRP | -0.498
13 | RRIRCRPPRLPRPRPRPHTWPRP | -0.216
14 | RRIRCRPPRLPRPRPRPHTYPRP | -0.578
15 | RRIRCRPPRLPRPRPRPHVCPRP | 0.0221
16 | RRIRCRPPRLPRPRPRPHWIPRP | -0.761
17 | RRIRCRPPRLPRPRPRPIACPRP | -0.285
18 | RRIRCRPPRLPRPRPRPIDAPRP | -0.268
19 | RRIRCRPPRLPRPRPRPIDFPRP | -0.458
20 | RRIRCRPPRLPRPRPRPIDNPRP | -0.755
21 | RRIRCRPPRLPRPRPRPIEPPRP | 0.159
22 | RRIRCRPPRLPRPRPRPIFDPRP | -0.191
23 | RRIRCRPPRLPRPRPRPIGEPRP | -0.0453
24 | RRIRCRPPRLPRPRPRPIGLPRP | 0.00863
25 | RRIRCRPPRLPRPRPRPIGNPRP | -0.221

Row | Sequence | shrunken log2 fold change
26 | RRIRCRPPRLPRPRPRPIGSPRP | -0.139
27 | RRIRCRPPRLPRPRPRPIGWPRP | -0.0817
28 | RRIRCRPPRLPRPRPRPIHLPRP | -0.193
29 | RRIRCRPPRLPRPRPRPIISPRP | -0.346
30 | RRIRCRPPRLPRPRPRPIKFPRP | -0.159
31 | RRIRCRPPRLPRPRPRPIKIPRP | -0.436
32 | RRIRCRPPRLPRPRPRPIKPPRP | -0.259
33 | RRIRCRPPRLPRPRPRPILVPRP | -0.0457
34 | RRIRCRPPRLPRPRPRPIMIPRP | -0.566
35 | RRIRCRPPRLPRPRPRPIMMPRP | -0.211
36 | RRIRCRPPRLPRPRPRPIMWPRP | -0.123
37 | RRIRCRPPRLPRPRPRPINEPRP | -0.116
38 | RRIRCRPPRLPRPRPRPINVPRP | -0.307
39 | RRIRCRPPRLPRPRPRPIPIPRP | -0.0907
40 | RRIRCRPPRLPRPRPRPIQKPRP | -0.127
41 | RRIRCRPPRLPRPRPRPIQLPRP | -0.0847
42 | RRIRCRPPRLPRPRPRPIRDPRP | -0.231
43 | RRIRCRPPRLPRPRPRPISTPRP | -0.245
44 | RRIRCRPPRLPRPRPRPITSPRP | 0.0215
45 | RRIRCRPPRLPRPRPRPIVHPRP | -0.7
46 | RRIRCRPPRLPRPRPRPIVWPRP | 0.102
47 | RRIRCRPPRLPRPRPRPIWGPRP | 0.25
48 | RRIRCRPPRLPRPRPRPIWTPRP | -0.0919
49 | RRIRCRPPRLPRPRPRPIYDPRP | -0.867
50 | RRIRCRPPRLPRPRPRPIYEPRP | -0.576

Row | Sequence | shrunken log2 fold change
51 | RRIRCRPPRLPRPRPRPKAQPRP | 0.262
52 | RRIRCRPPRLPRPRPRPKATPRP | 0.0985
53 | RRIRCRPPRLPRPRPRPKAWPRP | 0.132
54 | RRIRCRPPRLPRPRPRPKCKPRP | 0.0809
55 | RRIRCRPPRLPRPRPRPKCPPRP | 0.0246
56 | RRIRCRPPRLPRPRPRPKDMPRP | -0.531
57 | RRIRCRPPRLPRPRPRPKDPPRP | 0.148
58 | RRIRCRPPRLPRPRPRPKEYPRP | -0.207
59 | RRIRCRPPRLPRPRPRPKFDPRP | -0.0305
60 | RRIRCRPPRLPRPRPRPKFPPRP | -0.0293
61 | RRIRCRPPRLPRPRPRPKFSPRP | -0.0966
62 | RRIRCRPPRLPRPRPRPKGIPRP | 0.0519
63 | RRIRCRPPRLPRPRPRPKGRPRP | -0.00803
64 | RRIRCRPPRLPRPRPRPKHRPRP | -0.212
65 | RRIRCRPPRLPRPRPRPKHTPRP | -0.0232
66 | RRIRCRPPRLPRPRPRPKIFPRP | -0.0936
67 | RRIRCRPPRLPRPRPRPKISPRP | -0.712
68 | RRIRCRPPRLPRPRPRPKIYPRP | -0.643
69 | RRIRCRPPRLPRPRPRPKNGPRP | 0.0379
70 | RRIRCRPPRLPRPRPRPKQDPRP | 0.0895
71 | RRIRCRPPRLPRPRPRPKSDPRP | 0.0327
72 | RRIRCRPPRLPRPRPRPKSYPRP | -0.443
73 | RRIRCRPPRLPRPRPRPKVFPRP | 0.0792
74 | RRIRCRPPRLPRPRPRPKVMPRP | -0.184
75 | RRIRCRPPRLPRPRPRPKWCPRP | -0.105

Row | Sequence | shrunken log2 fold change
76 | RRIRCRPPRLPRPRPRPKWWPRP | 0.0539
77 | RRIRCRPPRLPRPRPRPKWYPRP | -0.239
78 | RRIRCRPPRLPRPRPRPKYEPRP | -0.403
79 | RRIRCRPPRLPRPRPRPKYNPRP | -0.696
80 | RRIRCRPPRLPRPRPRPKYWPRP | 0.22
81 | RRIRCRPPRLPRPRPRPLEHPRP | -0.167
82 | RRIRCRPPRLPRPRPRPLFGPRP | -0.0673
83 | RRIRCRPPRLPRPRPRPLGLPRP | -0.0163
84 | RRIRCRPPRLPRPRPRPLGSPRP | -0.423
85 | RRIRCRPPRLPRPRPRPLMMPRP | 0.239
86 | RRIRCRPPRLPRPRPRPLMYPRP | -0.606
87 | RRIRCRPPRLPRPRPRPLNKPRP | -0.695
88 | RRIRCRPPRLPRPRPRPLNPPRP | -0.185
89 | RRIRCRPPRLPRPRPRPLPLPRP | -0.0103
90 | RRIRCRPPRLPRPRPRPLSGPRP | -0.0515
91 | RRIRCRPPRLPRPRPRPLTDPRP | -0.285
92 | RRIRCRPPRLPRPRPRPLTSPRP | 0.208
93 | RRIRCRPPRLPRPRPRPLVKPRP | -0.0116
94 | RRIRCRPPRLPRPRPRPLWEPRP | 0.00378
95 | RRIRCRPPRLPRPRPRPLWTPRP | -0.00711
96 | RRIRCRPPRLPRPRPRPLYDPRP | -0.312
97 | RRIRCRPPRLPRPRPRPMAKPRP | -0.0415
98 | RRIRCRPPRLPRPRPRPMALPRP | -0.0797
99 | RRIRCRPPRLPRPRPRPMARPRP | 0.352
100 | RRIRCRPPRLPRPRPRPMCQPRP | -0.0371

Row | Sequence | shrunken log2 fold change
101 | RRIRCRPPRLPRPRPRPMCWPRP | 0.0297
102 | RRIRCRPPRLPRPRPRPMDKPRP | -0.131
103 | RRIRCRPPRLPRPRPRPMDWPRP | -0.0172
104 | RRIRCRPPRLPRPRPRPMEEPRP | 0.0671
105 | RRIRCRPPRLPRPRPRPMGFPRP | -0.103
106 | RRIRCRPPRLPRPRPRPMHAPRP | 0.315
107 | RRIRCRPPRLPRPRPRPMHFPRP | 0.102
108 | RRIRCRPPRLPRPRPRPMIWPRP | -0.0837
109 | RRIRCRPPRLPRPRPRPMIYPRP | -0.144
110 | RRIRCRPPRLPRPRPRPMMSPRP | -0.0652
111 | RRIRCRPPRLPRPRPRPMNEPRP | -0.307
112 | RRIRCRPPRLPRPRPRPMNQPRP | -0.248
113 | RRIRCRPPRLPRPRPRPMQGPRP | -0.0484
114 | RRIRCRPPRLPRPRPRPMQNPRP | 0.311
115 | RRIRCRPPRLPRPRPRPMQYPRP | -0.000361
116 | RRIRCRPPRLPRPRPRPMRTPRP | 0.962
117 | RRIRCRPPRLPRPRPRPMSEPRP | -0.0508
118 | RRIRCRPPRLPRPRPRPMTIPRP | -0.128
119 | RRIRCRPPRLPRPRPRPMTTPRP | 0.151
120 | RRIRCRPPRLPRPRPRPMVHPRP | -0.452
121 | RRIRCRPPRLPRPRPRPMVKPRP | -0.228
122 | RRIRCRPPRLPRPRPRPMWKPRP | -0.0547
123 | RRIRCRPPRLPRPRPRPMWPPRP | 0.481
124 | RRIRCRPPRLPRPRPRPMWWPRP | 0.396
125 | RRIRCRPPRLPRPRPRPMYGPRP | -0.675

Row | Sequence | shrunken log2 fold change
126 | RRIRCRPPRLPRPRPRPNCIPRP | -0.723
127 | RRIRCRPPRLPRPRPRPNCWPRP | 0.078
128 | RRIRCRPPRLPRPRPRPNDDPRP | -0.161
129 | RRIRCRPPRLPRPRPRPNDLPRP | 0.0432
130 | RRIRCRPPRLPRPRPRPNGPPRP | -0.00954
131 | RRIRCRPPRLPRPRPRPNHLPRP | -0.437
132 | RRIRCRPPRLPRPRPRPNIDPRP | -0.539
133 | RRIRCRPPRLPRPRPRPNIHPRP | -0.607
134 | RRIRCRPPRLPRPRPRPNLNPRP | -0.575
135 | RRIRCRPPRLPRPRPRPNLPPRP | 0.649
136 | RRIRCRPPRLPRPRPRPNLYPRP | -0.347
137 | RRIRCRPPRLPRPRPRPNMPPRP | -0.627
138 | RRIRCRPPRLPRPRPRPNPWPRP | 0.017
139 | RRIRCRPPRLPRPRPRPNQKPRP | 0.184
140 | RRIRCRPPRLPRPRPRPNQPPRP | -0.0425
141 | RRIRCRPPRLPRPRPRPNRCPRP | 0.053
142 | RRIRCRPPRLPRPRPRPNRKPRP | -0.127
143 | RRIRCRPPRLPRPRPRPNRVPRP | -0.206
144 | RRIRCRPPRLPRPRPRPNSAPRP | 0.0338
145 | RRIRCRPPRLPRPRPRPNVHPRP | -0.532
146 | RRIRCRPPRLPRPRPRPPACPRP | 0.479
147 | RRIRCRPPRLPRPRPRPPANPRP | 0.521
148 | RRIRCRPPRLPRPRPRPPCGPRP | 0.142
149 | RRIRCRPPRLPRPRPRPPCHPRP | 0.3
150 | RRIRCRPPRLPRPRPRPPCIPRP | 0.0428
